Biological target: E. coli F1Fo ATP synthase subunit b (cysteine-free enzyme) (E. coli) (UniProt P0ABA0)
Assay: cryo-EM structure; detergent-solubilised (digitonin) cysteine-free E. coli F1Fo ATP synthase (WT at 11 μM, εΔCTH2 mutant at 9 μM) with 10 mM MgATP, pH 8.0, 22 °C, 45 s in all until freezing

stoichiometry N: 2
Substance: E. coli F1Fo ATP synthase subunit b (cysteine-free enzyme) (from UniProt P0ABA0 1-156) (natural protein)

— article PMC9834311
